From publication PMC5383425, “Differential CLE peptide perception by plant receptors implicated from structural and functional analyses of TDIF-TDR interactions” (PLoS ONE, 2017)
“Also recorded” adds a separate entry of the source. Square brackets hold non-standard residues; d marks the D form. Ends that are not written are not given here. Peptide text beside a SMILES is read from it. Hyp = O=C(O)[C@@H]1C[C@@H](O)CN1

Tests used:
[1] = target: ecdTDR Y234A/F279A/F281A/S305A/W353A/ R421A/R423A (Arabidopsis thaliana, UniProt Q9FII5, F279A/F281A/R421A/R423A/S305A/W353A/Y234A); conditions: ITC, wild type TDIF, 25°C, pH 5.5
Excerpt: (§1) To elucidate the molecular basis of TDR-TDIF interaction, we expressed the extracellular domain of TDR (residues 30–642) from Arabidopsis thaliana using Bac-to-Bac baculovirus-mediated insect cell expression system (Invitrogen). DNA fragment encoding the A. thaliana TDR gene (residues 30–642) were amplified by polymerase chain reaction (PCR) from an A. thaliana Expressed Sequence Tag (EST) clone as template. The amplified DNA fragment was then cloned into a modified pFastBac1 vector with the secretion signal sequence of baculovirus gp67 glycoprotein fused to its 5’ end and an engineered 6-histidine tag at the carboxyl terminus of the TDR protein. The construct plasmid was used to transform DH10Bac (Invitrogen) competent cells to generated recombinant bacmid DNA. Then the bacmid DNA was used to transfect sf9 insect cells to generate recombinant virus which was then amplified three times to passage 3. […]
(§2) ITC experiments were performed on a MicroCal Auto-iTC200 instrument. […] The data was analyzed using ORIGIN software. The association constant (Ka), enthalpy change (ΔH), and the stoichiometry (N) were calculated by fitting the thermograms to one set of binding sites. The association constant (Ka) was calculated by fitting the thermograms to one binding site.

[2] = target: ecdTDR S305A/W353A/R421A/R423A (Arabidopsis thaliana, UniProt Q9FII5, R421A/R423A/S305A/W353A); conditions: ITC, wild type TDIF, 25°C, pH 5.5
Excerpt: as §1, §2

[3] = target: T1, ecdTDR (extracellular domain of TDR, residues 30–642), wild type (Arabidopsis thaliana, UniProt Q9FII5); assay: ITC of synthetic TDIF/CLE peptides with wild-type ecdTDR; conditions: for Kd (dissociation constant) / Binding to TDR in words (relative to wild type peptide): ITC, 25°C, pH 5.5; for Kd (dissociation constant): 10 mM sodium citrate, 100 mM NaCl, 0.5–1 mM peptide titrated into 10–40 μM ecdTDR, one set of binding sites, Kd = 1/Ka; for Binding to TDR in words (relative to wild type peptide): wild-type ecdTDR
T1 sequence (Q9FII5 30-642): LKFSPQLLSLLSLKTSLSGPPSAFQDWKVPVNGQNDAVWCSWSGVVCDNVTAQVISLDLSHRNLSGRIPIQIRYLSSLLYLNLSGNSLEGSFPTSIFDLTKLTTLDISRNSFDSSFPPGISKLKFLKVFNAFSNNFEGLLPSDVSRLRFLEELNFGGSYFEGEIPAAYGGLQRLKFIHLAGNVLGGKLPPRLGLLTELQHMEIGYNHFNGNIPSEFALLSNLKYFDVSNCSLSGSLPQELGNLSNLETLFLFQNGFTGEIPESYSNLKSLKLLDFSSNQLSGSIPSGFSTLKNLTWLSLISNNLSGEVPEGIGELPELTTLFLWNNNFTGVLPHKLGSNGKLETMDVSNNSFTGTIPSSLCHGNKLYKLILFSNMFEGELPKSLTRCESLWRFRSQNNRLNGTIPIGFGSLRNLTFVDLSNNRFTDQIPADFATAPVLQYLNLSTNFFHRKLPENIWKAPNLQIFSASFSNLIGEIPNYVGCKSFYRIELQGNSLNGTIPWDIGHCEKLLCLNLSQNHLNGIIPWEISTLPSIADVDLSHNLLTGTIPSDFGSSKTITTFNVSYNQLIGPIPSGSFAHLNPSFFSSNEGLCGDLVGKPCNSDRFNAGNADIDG
Excerpt: To elucidate the molecular basis of TDR-TDIF interaction, we expressed the extracellular domain of TDR (residues 30–642) from Arabidopsis thaliana using Bac-to-Bac baculovirus-mediated insect cell expression system (Invitrogen). DNA fragment encoding the A. thaliana TDR gene (residues 30–642) were amplified by polymerase chain reaction (PCR) from an A. thaliana Expressed Sequence Tag (EST) clone as template. The amplified DNA fragment was then cloned into a modified pFastBac1 vector with the secretion signal sequence of baculovirus gp67 glycoprotein fused to its 5’ end and an engineered 6-histidine tag at the carboxyl terminus of the TDR protein. The construct plasmid was used to transform DH10Bac (Invitrogen) competent cells to generated recombinant bacmid DNA. Then the bacmid DNA was used to transfect sf9 insect cells to generate recombinant virus which was then amplified three times to passage 3. We used 20 ml passage 3 virus to infect each liter of High Five cells with a cell density of 1.5 x 10^6 in SF900 II SFM medium (Invitrogen). The recombinant protein was expressed in High Five cells at 27°C. […] The TDR mutants were generated using a PCR-based site-directed mutagenesis kit (Invitrogen), and the mutant TDR proteins were expressed and purified as the same procedure of the wild-type TDR (30–642) protein.
ITC experiments were performed on a MicroCal Auto-iTC200 instrument. […] Experiments were carried out at 25°C in a buffer containing 10 mM sodium citrate and 100 mM NaCl at pH 5.5. The data was analyzed using ORIGIN software. The association constant (Ka), enthalpy change (ΔH), and the stoichiometry (N) were calculated by fitting the thermograms to one set of binding sites. The association constant (Ka) was calculated by fitting the thermograms to one binding site.

[4] = system: tracheary element differentiation; conditions: reported in vivo study; cited from earlier work
Excerpt: There are two major anchoring sites on the TDIF peptide that are separated by Hyp4-S5-G6-Hyp7 (Fig 2). […] The side chain of H1 dips into a binding pocket of TDR formed by residues S162, G186, S187, Y188 and G210. In addition, hydrogen bonding interactions create major interactiv ... || Three TDIF residues N8, I10 and N12 form a C-terminal anchoring site (Fig 2C). Alanine substitutions of these residues N8A, I10A and N12A radically weaken their binding with TDR receptor. δ-NH2 group of N8 forms hydrogen bonds with the hydroxyl group of S305; side chain of I10 forms hydrophobic interaction with W353; δ-NH2 group of N12 forms hydrogen bonds with the hydroxyl group of S377 and carbonyl group of N12 forms a hydrogen bond with the side chain of R421.

[5] = target: T2, extracellular domain of A. thaliana TDR (residues 30-642) (Arabidopsis thaliana, UniProt Q9FII5 30-642, N-glycosylated at N111, N356, N378, N471 and N525 (one GlcNAc visible on each in the structures)); assay: ITC; 0.5–1 mM peptide titrated into 10–40 μM ecdTDR; 25°C; 10 mM sodium citrate, 100 mM NaCl, pH 5.5; fitted to one set of binding sites; MicroCal Auto-iTC200; conditions: both partners purified
T2 construct: TDR/PXY (TDIF RECEPTOR / PHLOEM INTERCALATED WITH XYLEM) of A. thaliana, extracellular domain, residues 30-642; the structure models hold residues 40-625; also called ecdTDR; TDR-ECD; source: High Five insect cells (baculovirus), secreted, purified (Ni-NTA, size-exclusion chromatography)
T2 sequence (looked up): T1 sequence (Q9FII5 30-642)

[6] = target: T3, extracellular domain of A. thaliana TDR (residues 30-642), Q9FII5; assay: ITC
T3 chain: T1 sequence (Q9FII5 30-642)

[7] = target: T4, extracellular domain of A. thaliana TDR (residues 30-642) (Arabidopsis thaliana, UniProt Q9FII5 30-642, N-glycosylated at N111, N356, N378, N471 and N525 (one GlcNAc visible on each in the structures)); assay: ITC
T4 chain: T1 sequence (Q9FII5 30-642)

Chain of ecdTDR S305A/W353A/R421A/R423A (Q9FII5 30-642 S305A/W353A/R421A/R423A): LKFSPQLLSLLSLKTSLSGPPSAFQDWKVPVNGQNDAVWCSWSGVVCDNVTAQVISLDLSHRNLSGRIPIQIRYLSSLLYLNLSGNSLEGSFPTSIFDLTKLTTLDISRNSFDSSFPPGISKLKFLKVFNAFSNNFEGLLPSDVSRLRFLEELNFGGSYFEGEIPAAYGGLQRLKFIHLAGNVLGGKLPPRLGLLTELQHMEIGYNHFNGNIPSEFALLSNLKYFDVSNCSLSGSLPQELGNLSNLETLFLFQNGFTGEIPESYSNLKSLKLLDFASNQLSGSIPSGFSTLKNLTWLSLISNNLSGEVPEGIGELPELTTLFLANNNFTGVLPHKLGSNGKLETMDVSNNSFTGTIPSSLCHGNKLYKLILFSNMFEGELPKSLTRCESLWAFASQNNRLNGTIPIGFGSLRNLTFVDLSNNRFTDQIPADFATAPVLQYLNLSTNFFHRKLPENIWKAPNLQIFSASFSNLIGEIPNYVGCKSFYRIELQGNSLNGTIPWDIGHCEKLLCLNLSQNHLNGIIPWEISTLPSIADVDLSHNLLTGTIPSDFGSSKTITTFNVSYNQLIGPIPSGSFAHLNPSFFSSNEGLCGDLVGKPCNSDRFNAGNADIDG
Chain of ecdTDR Y234A/F279A/F281A/S305A/W353A/ R421A/R423A (Q9FII5 30-642 Y234A/F279A/F281A/S305A/W353A/R421A/R423A): as the sequence (Q9FII5 30-642 S305A/W353A/R421A/R423A) above, with Y205A, F250A, F252A counted along it

For CC[C@H](C)[C@H](NC(=O)[C@@H]1CCCN1C(=O)[C@H](CC(N)=O)NC(=O)[C@@H]1C[C@@H](O)CN1C(=O)CNC(=O)[C@H](CO)NC(=O)[C@@H]1C[C@@H](O)CN1C(=O)[C@@H](NC(=O)[C@H](CCC(=O)O)NC(=O)[C@@H](N)Cc1c[nH]cn1)C(C)C)C(=O)N[C@@H](CO)C(=O)N[C@@H](CC(N)=O)C(=O)O [TDIF, Tracheary Element Differentiation Inhibitory Factor] (H-HEV[Hyp]SG[Hyp]NPISN-OH), which Kd [1] is on record?
Its Kd is “no measurable binding”.

And the Kd [2]?
Its Kd is “no measurable binding”.

With CC(C)[C@H](NC(=O)[C@H](CCC(=O)O)NC(=O)[C@@H](N)Cc1c[nH]cn1)C(=O)N1C[C@H](O)C[C@H]1C(=O)N[C@@H](CO)C(=O)NCC(=O)N1C[C@H](O)C[C@H]1C(=O)N[C@@H](C)C(=O)N1CCC[C@H]1C(=O)N[C@@H](C)C(=O)N[C@@H](CO)C(=O)N[C@@H](C)C(=O)O [TDIF-N8A/I10A/N12A] (H-HEV[Hyp]SG[Hyp]APASA-OH) as the molecule, how does the Kd [3] read?
The Kd was 11.1 ± 1.84 µM.

With “TDIF-H1A/E2A/V3A/N8A/I10A/N12A: TDIF mutant peptide, both anchoring sites mutated (AAAPSGPAPASA; not fully specified (residues 4, 7))” as the molecule, how does the “Kd (dissociation constant)” value [3] read?
Its value is “No binding”.

What about the “Binding to TDR in words (relative to wild type peptide)” value [3] of the same molecule?
Its value is “no binding”.

With “CLE42: CLE peptide in which the E2 of TDIF has been replaced with glycine (HGVPSGPNPISN) [reference compound]” as the molecule, how does the “Binding to TDR in words (relative to wild type peptide)” value [3] read?
Its value is “does not influence the binding significantly”.

Which “Kd (dissociation constant)” value [3] does the source give for “TDIF-H1A/E2A/V3A/N12A: TDIF mutant peptide (AAAPSGPNPISA; not fully specified (residues 4, 7))” here?
The value was “No binding”.

And the “Binding to TDR in words (relative to wild type peptide)” value [3]?
The value was “no binding”.

For “CLE46: CLE peptide with E2K, V3H, I10T and S11G substitutions relative to TDIF (HKHPSGPNPTGN) [reference compound]”, which “Kd (dissociation constant)” value [3] is on record?
Its value is “No binding”.

And the “Binding to TDR in words (relative to wild type peptide)” value [3]?
The value was “no measurable binding; also recorded: unable to bind TDR”.

For CC[C@H](C)[C@H](NC(=O)[C@@H]1CCCN1C(=O)[C@H](CC(N)=O)NC(=O)[C@@H]1C[C@@H](O)CN1C(=O)CNC(=O)[C@H](CO)NC(=O)[C@@H]1C[C@@H](O)CN1C(=O)[C@@H](NC(=O)[C@H](CCC(=O)O)NC(=O)[C@@H](N)Cc1c[nH]cn1)C(C)C)C(=O)N[C@@H](CO)C(=O)N[C@@H](C)C(=O)O [TDIF-N12A] (H-HEV[Hyp]SG[Hyp]NPISA-OH), which Kd [3] is on record?
Its Kd is 4.69 ± 0.47 µM.

For “TDIF-P9A: TDIF mutant peptide, P9A (HEV[Hyp]SG[Hyp]NAISN)”, which “Effect on inhibition of tracheary element differentiation, in words” value [4] is on record?
Its value is “significant in effect”.

For “TDIF-S11A: TDIF mutant peptide, S11A substitution (HEVPSGPNPIAN; not fully specified (residues 4, 7))”, which “Binding to TDR in words (relative to wild type peptide)” value [3] is on record?
Its value is “barely affects the binding affinity”.

B1: TDIF-N8A/I10A/N12A peptide (peptide)
peptide: HEV[Hyp]SG[Hyp]APASA
notes: TDIF (CLE41/CLE44 peptide) of A. thaliana; numbers count on: the 12-residue peptide
What does the source list for B1?
Kd [5]: ~11 µM; fold lower affinity than wild-type TDIF [5]: ~110 fold

Which ratio to parent ([6]; chain shown with the change) does the source give for HLVPSGPNPLHN [CLE9 peptide R1H] here?
Its ratio to parent is -46.6.

What about the other: fold change in Kd against wild type TDIF ([6]; chain shown with the change, parent: […]) of the same molecule?
The other: fold change in Kd against wild type TDIF was 2.1.

What about the Kd ([6]; chain shown with the change;, parent: 10215 ± 6281 nM) of the same molecule?
The Kd was 0.219 µM.

B2: CLE42 peptide (peptide)
peptide: HGVPSGPNPISN
notes: CLE42 peptide of A. thaliana; numbers count on: the 12-residue peptide
Does B2 bind [5]?
Result: binds

B3: TDIF H1A mutant peptide (peptide)
peptide: AEV[Hyp]SG[Hyp]NPISN
notes: as for B1
With B3 as the molecule, how does the “fold lower affinity than wild-type TDIF” value [5] read?
The value was about 115 fold.

B4: TDIF E2R mutant peptide (peptide)
peptide: HRV[Hyp]SG[Hyp]NPISN
notes: as for B1
Which “fold increase in Kd over wild-type TDIF” value [5] does the source give for B4 here?
Its value is 5.3 fold.

B5: TDIF peptide with alanine substitution of Hyp7 (peptide)
peptide: HEV[Hyp]SGANPISN
notes: TDIF (CLE41/CLE44 peptide) of A. thaliana; numbers count on: the 12-residue peptide; also called Hyp7 alanine mutant
Does B5 bind [5]?
Result: binds

B6: TDIF peptide with alanine substitution of Hyp4 (peptide)
peptide: HEVASG[Hyp]NPISN
notes: TDIF (CLE41/CLE44 peptide) of A. thaliana; numbers count on: the 12-residue peptide; also called Hyp4 alanine mutant
Does B6 bind [5]?
Result: binds

B7: TDIF-H1R peptide (peptide)
peptide: REV[Hyp]SG[Hyp]NPISN
notes: TDIF (CLE41/CLE44 peptide) of A. thaliana; numbers count on: the 12-residue peptide; also called printed once as 'R1H substitution of TDIF'; source: synthetic peptide
Which “fold lower affinity than wild-type TDIF” value [5] does the source give for B7 here?
The value was 3.2 fold.

B8: TDIF V3A mutant peptide (peptide)
peptide: HEA[Hyp]SG[Hyp]NPISN
notes: as for B1
With B8 as the molecule, how does the “fold lower affinity than wild-type TDIF” value [5] read?
Its value is 11.1 fold.

B9: TDIF E2A mutant peptide (peptide)
peptide: HAV[Hyp]SG[Hyp]NPISN
notes: as for B1
Which “fold increase in Kd over wild-type TDIF” value [5] does the source give for B9 here?
Its value is 3.2 fold.

B10: TDIF S11A mutant peptide (peptide)
peptide: HEV[Hyp]SG[Hyp]NPIAN
notes: as for B1
Does B10 bind [5]?
Result: binds

B11: TDIF peptide with alanine substitution of S5 (peptide)
peptide: HEV[Hyp]AG[Hyp]NPISN
notes: TDIF (CLE41/CLE44 peptide) of A. thaliana; numbers count on: the 12-residue peptide; also called S5 alanine mutant
Does B11 bind [5]?
Result: binds

B12: TDIF-P9A mutant peptide (peptide)
peptide: HEV[Hyp]SG[Hyp]NAISN
notes: as for B1
With B12 as the molecule, how does the “fold decrease in binding against wild-type TDIF” value [5] read?
The value was 2 fold.

B13: G6A TDIF mutant peptide (peptide)
peptide: HEV[Hyp]SA[Hyp]NPISN
notes: as for B1
For B13, which “fold lower affinity than wild-type TDIF” value [5] is on record?
Its value is 13.9 fold.

B14: G6T TDIF mutant peptide (peptide)
peptide: HEV[Hyp]ST[Hyp]NPISN
notes: as for B1
Which “fold lower affinity than wild-type TDIF” value [5] does the source give for B14 here?
Its value is 20.1 fold.

With RLVPSGPNPLHN [CLE9 peptide] as the molecule, how does the Kd [7] read?
The Kd was 10.2 µM.
